The values that follow come from the supplement of paper PMC9170038.

For the data set, the system named is MS2 coat protein. Put plainly: apparent KD of MS2 coat protein; higher = weaker reporter binding. The following applies: Eterna round: R107. The procedure: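 RNA-MaP round R107: designed RNA switches with theophylline, tryptophan, arginine or FMN aptamers are transcribed on-chip within common flanks. They are titrated with SNAP-549-labelled MS2 coat protein in RNA-MaP buffer (100 mM Tris pH 7.5, 80 mM KCl, 4 mM MgCl2), without ligand or with the indicated ligand. Median apparent KD per design.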

Where [1] appears, read: input ligand: theophylline 20 uM.
[2] abbreviates: input ligand: tryptophan 2.4 mM.
Where [3] appears, read: input ligand: theophylline 2 mM.

Turning to “ACCUACACGGAGACGUGUAGGAGUAAUGAUACCAGCAUGGAGACAUGCCCUUGGCAGCGUUACAUGAGGAUCACCCAUGUACGUU [ETHA #3]”, the “apparent KD of MS2 coat protein” value (input ligand: arginine 13.2 mM) worked out at 10.4 nM, the “apparent KD of MS2 coat protein” value under setting [1] amounted to 15.1 nM and the “apparent KD of MS2 coat protein” value under setting [2] worked out at 10.2 nM.
Turning to “ACCUGCGUUUGUUUCUUUCUGACGCAGGUUCGAGGACCGGUACGGCCGCCACUCGGACAUGAGGAUCACCCAUGUUUGAAAUGGG [#01 Exclusion Tryptophan A]”, the “apparent KD of MS2 coat protein” value is, setting by setting: (input ligand: arginine 13.2 mM) 90.4 nM; under setting [1], 248 nM; under setting [3], 313 nM.
In the case of “ACGACAUGAGGAUCACCCAUGUACUCUGAAGGAGCGUCGAUUACGACAGGUAGGUCGCAGGCUAAGGAUGGUGAUGCUCAAGACG [Exclusion Arginine A GF8]”, the “apparent KD of MS2 coat protein” value by setting is: (input ligand: arginine 13.2 mM) 53.5 nM; (input ligand: none) 87.7 nM; under setting [1], 90.4 nM; under setting [3], 114 nM; under setting [2], 57.8 nM.
For the sequence “ACGACGCAUAGUGAUACCAGUAGAACAUGAGGAUCACCCAUGUCUGUGACGCACCACCUCUGCCCUUGGCAGCACUAUGCGUCAG [SSTheo B #8]”, the “apparent KD of MS2 coat protein” value (input ligand: arginine 13.2 mM) was determined as 22.3 nM, the “apparent KD of MS2 coat protein” value under setting [1] amounted to 30.3 nM and the “apparent KD of MS2 coat protein” value under setting [2] amounted to 23 nM.
On to “ACGAUAGCACCUGAGGAUCACCCAGGUGAUACCAGCCUGGAAACAGGCCCUUGGCAGCACCUAAAAUAAAGGUAACUAUCGAAUA [TheoAX6 #MicroSwitchBubble #AlternativeMS2]”, for which the “apparent KD of MS2 coat protein” value (input ligand: arginine 13.2 mM) was 57.3 nM; the “apparent KD of MS2 coat protein” value (input ligand: none) amounted to 50.6 nM; the “apparent KD of MS2 coat protein” value under setting [1] came to 251 nM; the “apparent KD of MS2 coat protein” value under setting [3] came out at 105 nM; the “apparent KD of MS2 coat protein” value under setting [2] was 48.6 nM.
On the same counts, the results for “ACGAUAGGACUUGAGGAUCACCCAGGUGAUACCAGCCUGGAAACAGGCCCUUGGCAGCACUAAUACUCCAAUAACCUAUCGAAUA [TheoAX 16 #MicroSwitchBubble #AlternativeMS2]” are 341 nM, 195 nM, 347 nM, 417 nM and 332 nM.
“ACGCUGAUUGAUUACAAUCAGCGAAAAGAUACCAGUGGGUAAUCCCACCCUUGGCAGCUUAAACUUGAGGAUCACCCAGGUGGUA [TheoAS 17 #MS2Right #BothOrNeither #AlternativeMS2]”: the “apparent KD of MS2 coat protein” value runs as follows: (input ligand: arginine 13.2 mM) 88.2 nM; (input ligand: none) 238 nM; under setting [1], 419 nM; under setting [3], 439 nM; under setting [2], 630 nM.
For the sequence “ACGCUGCAUAGGAAAACUAUGUAGCGAAAUCGAGGACCGGUACGGCCGCCACUCGUCCUCAACAUGAGGAUCACCCAUGUAAUAA [Mat - Exclusion - Trytophan A - D8]”, the “apparent KD of MS2 coat protein” value runs as follows: (input ligand: arginine 13.2 mM) 20.8 nM; under setting [1], 23.7 nM; under setting [3], 22.8 nM.
On to “ACGUCCGGUUUACUCGUGGGCAUGGUCGAUACCAGUAUUUUAAUCUACCCUUGGCAGCGACAUGAGGAUCACCCAUGUGCGAAGA [XTheo A #21]”, for which the “apparent KD of MS2 coat protein” value runs as follows: (input ligand: arginine 13.2 mM) 21.5 nM; under setting [1], 30.6 nM; under setting [2], 22.8 nM.
The like results for “ACUAGUUGUGCAGAUACCAGACAUGAGGAUCACCCAUGUUUGGGAUCUAAUGAUCAUCCUGUCCCUUGGCAGCUGUACAUCUAGA [Omei Theo B Exc v2]” were, in that order, 51.9 nM, 234 nM and 89.9 nM.
The like results for “ACUAGUUGUGCAGAUACCAGACAUGAGGAUCACCCAUGUUUGGGAUCUAAUGAUCAUCUUGUCCCUUGGCAGCUGUACAUCUAGA [Omei Theo B Exc v1]” were, in that order, 27.1 nM, 72.6 nM and 55.5 nM.
For “AGAAUAUAAUAUAUCAAAGGUAUAACCGAAGGAGCGCCGAAUAAGGCAGGUAGGUCGCGGAAACAUGAGGAUCACCCAUGUCCAU [Arginine A Same State; Euphoria Solution 2]”, the “apparent KD of MS2 coat protein” value by setting is: (input ligand: arginine 13.2 mM) 19 nM; (input ligand: none) 19.1 nM; under setting [1], 23.6 nM; under setting [3], 16.6 nM; under setting [2], 18.7 nM.
As to “AGACAUGAGGAUCACCCAUGUGAAGUGGAUACCAGCCGCAGCGAUGGCCCUUGGCAGCCAGCUUUGUGUCGAUACAUCCGCACUU [theeternabot_exclusion_MS2_Theo_A_2]”, the “apparent KD of MS2 coat protein” value runs as follows: (input ligand: arginine 13.2 mM) 16.9 nM; under setting [1], 22.9 nM; under setting [2], 18.1 nM.
For the sequence “AGACGAGAAGAGGUUUACCCAUGUACAGAAGGAGCGUCGUUGACGACAGGUAGGUCGCUGGAAACAUGAGGAUCACCCAUGUUGA [#06 Exclusion - Arginine A]”, the “apparent KD of MS2 coat protein” value is, setting by setting: (input ligand: arginine 13.2 mM) 27.4 nM; (input ligand: none) 40.8 nM; under setting [1], 49.1 nM; under setting [3], 59.7 nM; under setting [2], 48.3 nM.
“AGACUGUAAAGUCUACCGGUCAACAAUAAUCGAGGACCGGUACGGCCGCCACUCGAUGUGAUAUACACAUGAGGAUCACCCAUGU [Tryptophan A 16]”: the “apparent KD of MS2 coat protein” value was found to be 17.2 nM (input ligand: arginine 13.2 mM), 22.6 nM under setting [1] and 19.7 nM under setting [3].
As to “AGAGUCAGACAAAAGUCUGGCUCAGCCGAAGGAGCGUCCGAAAGGACAGGUAGGUCGCGGUUACUUGAGGAUCACCCAAGUUCCU [ArgAS 26 #OpenEnded #AlternativeMS2]”, the “apparent KD of MS2 coat protein” value turned out to be 69 nM (input ligand: arginine 13.2 mM); 163 nM (input ligand: none); 151 nM under setting [1]; 177 nM under setting [3]; 144 nM under setting [2].
